Laboratory results taken from patent US20100008928A1 (Takeda / Millennium, published 2010).

How the values were obtained:
[1] = molecular target: T1, nectin-2 Ig1 domain-deficient protein (human, UniProt Q92692 32-538); experiment: FCM
T1 construct: transient in CHO-K1; also called delta-Ig1; Nectin-2ΔIg1
T1 sequence: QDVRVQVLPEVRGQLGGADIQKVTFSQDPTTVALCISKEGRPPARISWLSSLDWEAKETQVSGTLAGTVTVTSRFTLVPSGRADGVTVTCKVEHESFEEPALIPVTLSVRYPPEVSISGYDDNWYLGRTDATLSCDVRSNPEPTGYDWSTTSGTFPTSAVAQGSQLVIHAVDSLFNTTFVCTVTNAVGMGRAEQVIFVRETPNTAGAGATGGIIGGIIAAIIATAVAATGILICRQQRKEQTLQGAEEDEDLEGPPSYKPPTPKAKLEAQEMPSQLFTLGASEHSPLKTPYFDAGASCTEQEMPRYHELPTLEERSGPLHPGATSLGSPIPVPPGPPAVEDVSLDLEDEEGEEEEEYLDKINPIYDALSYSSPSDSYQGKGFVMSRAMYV
Protocol: (§1) After 200 μL of FCM buffer was added to each well and washed once by centrifugal operation, 50 μL each of Alexa488-labeled secondary antibody diluted in FCM buffer to 10 μg/mL was added to and mixed therewith, and the mixture was then reacted on ice for an hour. The Alexa488-labeled secondary antibody used was Alexa Fluor488 goat anti-human IgG (H+L) for the human antibodies and Alexa Fluor488 goat anti-rabbit IgG (H+L) (Invitrogen) for the rabbit antibody. The cells in each well were washed twice with FCM buffer and then resuspended in 250 μL of FCM buffer. Using the flow cytometer MPL500 (BECKMAN COULTER), the fluorescence intensity of stained cells was measured to determine the ratio of the median value of fluorescence intensities of the respective antibodies in the primary antibody group to the median value of fluorescence intensities in the negative control group.

[2] = molecular target: T2, nectin-2 Ig2 domain-deficient protein (human, UniProt Q92692 32-538); experiment: FCM
T2 construct: transient in CHO-K1; also called delta-Ig2; Nectin-2ΔIg2
T2 sequence: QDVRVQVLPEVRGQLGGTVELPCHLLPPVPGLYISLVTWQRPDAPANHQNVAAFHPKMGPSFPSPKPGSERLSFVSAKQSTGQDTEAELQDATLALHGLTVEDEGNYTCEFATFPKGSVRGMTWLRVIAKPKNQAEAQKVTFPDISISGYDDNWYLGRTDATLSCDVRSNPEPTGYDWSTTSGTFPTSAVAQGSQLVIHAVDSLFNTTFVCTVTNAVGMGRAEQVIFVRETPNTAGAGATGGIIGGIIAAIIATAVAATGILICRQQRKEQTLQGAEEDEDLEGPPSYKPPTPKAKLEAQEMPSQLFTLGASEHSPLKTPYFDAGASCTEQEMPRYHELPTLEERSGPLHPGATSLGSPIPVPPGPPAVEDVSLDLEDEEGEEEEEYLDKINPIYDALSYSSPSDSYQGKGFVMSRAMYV
Protocol: as §1

human nectin-2δ protein [3] = molecular target: T3, human nectin-2δ protein (human, UniProt Q92692 32-538); experiment: FCM
T3 sequence: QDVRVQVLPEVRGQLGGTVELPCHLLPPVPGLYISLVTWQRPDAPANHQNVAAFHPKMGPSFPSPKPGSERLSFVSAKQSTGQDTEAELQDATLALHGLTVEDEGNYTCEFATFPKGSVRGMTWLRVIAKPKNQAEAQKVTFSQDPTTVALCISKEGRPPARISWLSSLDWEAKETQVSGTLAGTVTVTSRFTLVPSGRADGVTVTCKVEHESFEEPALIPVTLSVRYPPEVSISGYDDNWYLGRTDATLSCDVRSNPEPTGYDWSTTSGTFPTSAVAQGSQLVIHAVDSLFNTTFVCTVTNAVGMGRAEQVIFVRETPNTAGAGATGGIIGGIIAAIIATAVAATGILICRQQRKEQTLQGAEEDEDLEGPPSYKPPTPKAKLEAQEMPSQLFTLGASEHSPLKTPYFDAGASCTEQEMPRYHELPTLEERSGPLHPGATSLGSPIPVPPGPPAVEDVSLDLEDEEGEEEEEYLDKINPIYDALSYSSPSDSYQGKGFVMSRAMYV
Protocol: (§2) Then, after 200 μL of FCM buffer was added to each well and washed once by centrifugal operation, 50 μL each of Alexa488-labeled secondary antibody diluted in FCM buffer to 10 μg/mL was added thereto for suspension, and the mixture was then reacted on ice for an hour. As secondary antibodies, Alexa Fluor488 goat anti-human IgG (H+L) was used for the human antibodies and Alexa Fluor488 goat anti-rabbit IgG (H+L) (Invitrogen) was used for the rabbit antibody, respectively. Next, the cells were washed twice with FCM buffer and then resuspended in 250 μL of FCM buffer.

[4] = molecular target: T4, cynomolgus monkey nectin-2 protein (cynomolgus monkey, UniProt Q92692 32-538 (human entry)); experiment: FCM
T4 construct: transient in CHO-K1; also called maNectin-2
T4 chain: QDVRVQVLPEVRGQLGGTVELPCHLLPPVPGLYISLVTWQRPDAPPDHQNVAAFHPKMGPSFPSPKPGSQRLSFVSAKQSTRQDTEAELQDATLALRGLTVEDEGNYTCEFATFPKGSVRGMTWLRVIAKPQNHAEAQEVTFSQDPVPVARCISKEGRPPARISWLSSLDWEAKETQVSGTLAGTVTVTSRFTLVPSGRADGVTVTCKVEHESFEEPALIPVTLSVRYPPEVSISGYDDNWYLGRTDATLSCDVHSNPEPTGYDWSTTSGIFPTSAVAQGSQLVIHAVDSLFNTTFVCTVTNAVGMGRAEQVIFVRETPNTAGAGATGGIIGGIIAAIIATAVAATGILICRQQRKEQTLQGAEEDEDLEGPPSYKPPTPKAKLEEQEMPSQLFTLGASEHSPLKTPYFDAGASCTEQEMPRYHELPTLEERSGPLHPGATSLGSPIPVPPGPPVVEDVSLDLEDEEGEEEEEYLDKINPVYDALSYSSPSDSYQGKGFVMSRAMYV
Protocol: as §2

[5] = molecular target: T5, human nectin-2δ AN77-78PD (human, UniProt Q92692 32-538); experiment: FCM
T5 construct: transient in CHO-K1; also called Nectin-2 (AN77-78PD)
T5 sequence: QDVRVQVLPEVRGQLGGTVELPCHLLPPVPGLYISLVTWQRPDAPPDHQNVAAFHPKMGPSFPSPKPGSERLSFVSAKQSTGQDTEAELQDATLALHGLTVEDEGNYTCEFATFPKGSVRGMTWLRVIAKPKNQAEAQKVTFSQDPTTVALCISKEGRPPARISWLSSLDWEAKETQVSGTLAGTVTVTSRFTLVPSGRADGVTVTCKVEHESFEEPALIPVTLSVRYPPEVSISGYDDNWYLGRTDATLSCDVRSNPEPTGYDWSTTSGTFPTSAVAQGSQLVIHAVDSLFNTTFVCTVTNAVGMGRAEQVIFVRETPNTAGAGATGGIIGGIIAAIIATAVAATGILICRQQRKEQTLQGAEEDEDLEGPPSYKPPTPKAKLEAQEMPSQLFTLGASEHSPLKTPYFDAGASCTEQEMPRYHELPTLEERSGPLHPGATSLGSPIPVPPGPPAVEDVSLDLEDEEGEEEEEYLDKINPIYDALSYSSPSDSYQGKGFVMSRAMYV
Protocol: (§3) Then, after 200 μL of FCM buffer was added to each well and washed once by centrifugal operation, 50 μL of Alexa Fluor488 goat anti-human IgG (H+L) diluted in FCM buffer to 10 μg/mL was added thereto for suspension, and the mixture was then reacted on ice for an hour. Next, the cells were washed twice with FCM buffer and resuspended in 250 μL of FCM buffer. Using flow cytometer MPL500 (BECKMAN COULTER), the fluorescence intensities of stained cells were measured, respectively.

human nectin-2δ G113R = molecular target: T6, human nectin-2δ G113R (human, UniProt Q92692 32-538); experiment: FCM
T6 construct: transient in CHO-K1; also called Nectin-2 (G113R)
T6 sequence: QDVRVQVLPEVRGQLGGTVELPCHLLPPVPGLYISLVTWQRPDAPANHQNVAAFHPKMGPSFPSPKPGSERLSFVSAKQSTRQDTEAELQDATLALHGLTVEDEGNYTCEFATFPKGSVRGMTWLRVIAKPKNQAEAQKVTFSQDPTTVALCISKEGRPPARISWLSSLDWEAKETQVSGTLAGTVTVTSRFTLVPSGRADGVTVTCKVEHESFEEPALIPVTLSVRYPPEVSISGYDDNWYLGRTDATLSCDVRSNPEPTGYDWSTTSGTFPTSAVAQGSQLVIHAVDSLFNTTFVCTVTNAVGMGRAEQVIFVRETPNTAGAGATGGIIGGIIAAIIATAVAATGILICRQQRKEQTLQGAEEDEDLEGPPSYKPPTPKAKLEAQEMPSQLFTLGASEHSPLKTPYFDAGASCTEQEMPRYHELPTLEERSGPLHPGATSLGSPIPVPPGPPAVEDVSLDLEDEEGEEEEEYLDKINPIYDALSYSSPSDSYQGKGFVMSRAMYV
Protocol: as §3

human nectin-2δ H128R = molecular target: T7, human nectin-2δ H128R (human, UniProt Q92692 32-538); experiment: FCM
T7 construct: transient in CHO-K1; also called Nectin-2 (H128R)
T7 sequence: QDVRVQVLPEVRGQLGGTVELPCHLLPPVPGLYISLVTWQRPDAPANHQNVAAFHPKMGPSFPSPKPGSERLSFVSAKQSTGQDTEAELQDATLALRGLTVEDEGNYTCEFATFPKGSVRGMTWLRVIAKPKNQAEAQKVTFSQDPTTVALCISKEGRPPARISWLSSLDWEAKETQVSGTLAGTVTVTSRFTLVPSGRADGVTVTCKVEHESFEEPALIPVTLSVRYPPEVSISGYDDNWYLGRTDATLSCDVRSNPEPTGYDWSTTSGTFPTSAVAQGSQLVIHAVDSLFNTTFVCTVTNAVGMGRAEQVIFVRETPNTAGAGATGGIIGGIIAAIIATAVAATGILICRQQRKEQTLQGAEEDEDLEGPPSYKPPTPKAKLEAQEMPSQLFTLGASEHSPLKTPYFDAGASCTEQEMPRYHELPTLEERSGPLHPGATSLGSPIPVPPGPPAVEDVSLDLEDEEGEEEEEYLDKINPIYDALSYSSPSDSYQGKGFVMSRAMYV
Protocol: as §3

human nectin-2δ protein [6] = molecular target: T3, human nectin-2δ protein; experiment: Cell ELISA
Protocol: In other words, the CHO cell line (#43-2) stably expressing nectin-2δ and the mock-CHO cell line were incubated in a 96-well tissue culture plate charged with GS-selection DMEM medium supplemented with 10% dialyzed FBS and GS supplement. After the culture supernatant of the plate where each cell line became confluent was removed by aspiration, 200 μL/well of PBS(+) supplemented with 2% FBS was added thereto and incubated on ice in the dark for an hour. After the supernatant of each well was removed by aspiration, 50 μL each/well of the hybridoma culture supernatant was added and reacted on ice in the dark for 2 hours. After this plate was washed once with PBS(+) chilled at 4° C., anti-human IgG (H+L) chain specific (GOAT) peroxidase conjugate (CALBIOCHEM) diluted to 3,000-fold with PBS(+) supplemented with 2% FBS was added by 100 μL each/well and reacted on ice in the dark for 2 hours. […] Absorbance (450 nm) of each well was measured using a plate reader (Multiskan BICHROMATIC; Thermo Electron Co.), and those showing absorbance of 0.5 or more in the nectin-2 expression CHO cell line plate and showing absorbance of less than 0.3 in the mock-CHO cell line plate were judged to be positive wells. […]

B1: Nec1-554-1 (antibody, human IgG1, V domains shown)
VH: EVQLVESGGGLVKPGGSLRLSCAASGFTFSSYNMNWVRQAPGKGLEWVSSISSSSSYIYYADSVKGRFTISRDNAKNSLYLQMNSLRAEDTAVYYCARDYYGSGTYYLFDYWGQGTLVTVSS
VL: EIVLTQSPDFQSVTPKEKVTITCRASQSIGSSLHWYQQKPDQSPKLLIKYASQSFSGVPSRFSGSGSGTDFTLTINSLEAEDAAAYYCHQSRSLPITFGQGTRLEIK
notes: human IgG1/k from hybridoma FERM BP-10681
median fluorescence ratio [1]: 3.6 | binding result [2]: no binding (tested: ratio <2 = no reactivity; 6 µg/mL) | median fluorescence ratio (human nectin-2δ protein [3]): 43 | median fluorescence ratio [4]: 14.8 | median fluorescence ratio [5]: 44.2 | median fluorescence ratio (human nectin-2δ G113R): 38.7 | median fluorescence ratio (human nectin-2δ H128R): 51.5 | EC50 (human nectin-2δ protein [6]): 1.11 nM
